Laboratory results from the nanobody polyreactivity screen of Harvey et al. (2022).

Experiment: yeast display, Sf9 membrane polyspecificity reagent, FACS + sequencing; frameworks hold sequencing errors
In short: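 In a synthetic yeast display library (Saccharomyces cerevisiae BJ5465), nanobody expression was induced with galactose for 36–48 hours. FACS gates were set low and high (top ~1%) using anti-HA fluorescence for expression and streptavidin fluorescence for binding of the Sf9 membrane reagent. Each polyreactivity label is drawn from the gate of origin.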

Row | Sequence | polyreactivity (PSR sort gate)
1 | QDQLVESRGVLVQAGGSLRLTCAASGRTFYLNAMGWNRQATGKEREFVAAITWSSGSTYYADSVKGRFTISRDNAMNTVYLQMNSLKPEDTAVYYCAAAGRWSAYMYSWGQGTQVTVSS | high polyreactivity
2 | QVQLVESGGGLVQAGGSLRLSCAASGSIFGSNAMGWYRQAPGKERELVAAITSRGGSTYYADSVKGRFTISRDNAKNTVYLQMNSLKPEDTAVYYCAADYQSVGGAEYDYWGQGTQVTVSS | high polyreactivity
3 | QVQLVESGGGLVQAGGSLRLSCAASGRTFVGNAMGWYRQAPGKEREFVAAITSRTGSTYYADSVKGRFTISRDNAKYTVYLQMNSLKPEDTAVYYCATPYYQNVYSRKAYNYWGQGTQVTVSS | high polyreactivity
4 | QVQLVESGGCLVQAGGSLRLSCAASGRTFYLYAMGWNRQAPGKEREFVARITFSGVSTYYADSVKGSFTISRDNAKNTVSLQMYRLKPEDTAVYYCNRVGHYGYSEGYYYWGQGTQVTVSS | high polyreactivity
5 | QVQLVESGGGLVQAGGSLRLSCAASGITFGRNAMGWYRQAPGKERELVAAISRGGSTNYADSVKGRFTISRDNAKNTVYLQMNSLKPEDTAVYYCNARSWPHGSWIPIHRRYGYWGQGTQVTVSS | high polyreactivity
6 | QVQLVESGGGLVQAGGSLRLSCAASGSTFQGNAMGWYRQAPGKERELVAAISSDGSTDYADSVKGRFTISRDNAKNTVYLQMNSLKPEDTAVYYCNRVSPGPDADLEFDYWGQGTQVTVSS | low polyreactivity
7 | QVQLVESGGCLVQAGGSLRLSCAASGRTFSYYAMGWYRQAPGKERELVAAIDWSGSRTYYADSVKGRFTISRDNAKNTVYLQMNSLKPEDTAVYYCIADRTRGYQRYDYWGQGTQVTVSS | high polyreactivity
8 | QVQIVESGGGLVQAGGSLSLSCADYGSTFYHNVMGWYRQAPGKERELVASIDTGDSTNYADSVKGRFTISRDNAKNTVYLQMNSLKPEYTAVYYCNADSYPALNKRGYDYWGQGTQVTVSS | low polyreactivity
9 | QVQLVESGGGLVQAGGSLRLSCAASGFTFSWYVMGWYRQAPGKERELVAAISSSGGSTYYADSVKGRFTISRDNAKNTVYLQMKSLKPEDTAVYYCSAGRPYGDGDYWGQGTQVTVSS | high polyreactivity
10 | QVQLVESGGGLVQAGGSLRLSCAASGSTFNYYAMGWYRQAPGKERELVAAISSSGGTTYYADSVKGRFTISRDNAKNTVYLQMKSLKPEDTAVYYCATDTPPYWGGSHFDYWGQGTQVTVSS | low polyreactivity
11 | QVHLVESGGGLVQAGGSLRLSCAASGITFNIYTLGWYRQAPGKEREFVATISSSGGGTYYADSVKGRFTISRDNSKNTVYFQMNSLKPEDTAVYYCARYGIGADGYDYWGQGTQVTVSS | low polyreactivity
12 | QVQLVESGGGLVQAGGSLRLSCAASGSIFGANTMGWYRQAPGKERELVAGITSGARTYYADSVKGRFTISRDNAKNTVYLQMNSLKPEDTAVYYCAAKYAWRRYGYWGQGTQVTVSS | high polyreactivity
13 | QVQLVESGGGLVQAGGSLRLSCAASGSIFGYYAMGWYRPAPGKERQLVAAIDSRGGSTYYADSVKGRFTISRDYEKNTVYLQMNSLKPEDTAVYYWAARLRYPRRGQGDNYWGQGTQVTVSS | low polyreactivity
14 | QVQLVESGGGLVQAGGSLRLSCAASGSTIVSYDMGWYRPAPGKDRELVAAITYDGDSTYYADSVKGRFTISRDNAKNTVYLQMNSLKPEDTAVYYCAAEPGDDLKFRGGFEYWGQGTQVTVSS | low polyreactivity
15 | QVQLVESGGGLVHAGGSLRLSCAASGITFVRYMGWYRQAPGKERELVAAISASGGSTYYADSVKGRFTISRDNAKNTVYLQLNCLKPEDTAVYYCRFLRVGSLTMDYWGQGSQVTVSS | high polyreactivity
16 | QVQLVESGGGLVQAGGSLRLSCAASGYTFDWYAMGWYRQAPGKERELVAAISYSTGSTYYADSVKGRFTISRDNAKNTVYLQMHSLKPEDTAVYYCATRYWRSGYDWPYGSWGQGTQVTVSS | high polyreactivity
17 | QVHLVESGGGLVQAGGSLRLICAASGSIFRRYAMGWYRQAPGKERELVASISSRGTRTYYADSVTWRFTISRDNAKNTVYLQMNSLKPEDTAVYYCAASYYTPYDYLGQGTQVTVSS | high polyreactivity
18 | QVQLVESGGGLVQAGGSLRLSCAASGRIFSAYAMGWFRQAPGKERELLAAISKRGGRTYYADSVKGRFTISRDNATNTVYLQTNSLKPEDTSVYYCNKRYLDGHDLDYCGQGTQVTVSS | high polyreactivity
19 | QVQLVESGGGLVQAGGSLRLSCAPSGIISIFNVMGWYRQAPGKERELVASITGRGGSTFYADSVKGRFTISRDNAKNTVYLQMNSLKPEDTAVYYCATDTGYTYPVTGLYDYWGQGTQVTVSS | low polyreactivity
20 | QVQLVESGGGLVQAGGSLRLSCAASGFIFYRYAMGWYRQAPGKERELVAAISRSGGSTYYADSVKGRFTISRDNAKNTVYLQMNSLKPEDTAVYYCAADRGSLAPGNDYWGQGTQVTVSS | high polyreactivity
21 | QVQLVESGGGLVQAGGSLRISCAASGHIFFYYTMGWYRPAPGKERELVAGITIGGSTNYADSVKGRFTISRDNAKNTVSLQMNSLKPEDTAVYYCNVVKYVYIYSYWEYYYWGQGTQVTVSS | low polyreactivity
22 | QVQLVESGGGLVQAGGSLRLSCAASGRIFHHNVMGWYRPAPGKERELVAAISQSGGSTYYADSVKGRFTISRDNAKYTVYVQMNSLKPEDTAVYYCNAGAAGRRYNYWGQGTQVTVSS | low polyreactivity

Row | Sequence | polyreactivity (PSR sort gate)
23 | QVQLVESGGGLVQAGGILRLSCAASGRILTTNAMGWYRQAPGKERELVAAITRSGGRTYYADSVKGRFTISRDNAKNTVYFQMNSLKPEDTAVYYCNAVTTRLSLYDYWGQGTQVTVSS | high polyreactivity
24 | QVQLVESGGGLVQAGGSLRLSCAASGRNFKFYAMGWYRQAPGKERELVAGINTDGGSTYYADSVKGRFTISRDNAKNTVYLQMNSLKPEDTAVYYCNAYYYKPARKYARHYDYWGQGTQVTVSS | low polyreactivity
25 | QVQLVESGGGLVQAGGSLRLICAASGSTSQINAMGWYRQAPGKERELVAAINSGDITNYADSVKGRFTISRDNAKNTVYLQMNSLKPEDTAVYYCNADILVVKFDYWGQGTQVTVSS | low polyreactivity
26 | QVQLVESGGGLVQAGGSLRLSCAASGSTIDWYGMGWYRQAPGKERELVAAINFSDGSTYYADSVKGRFTISRDNAKNTVYLQMNSLKPEDTAVYYCAAYTPSYGGRDYWGQGTQVTVSS | low polyreactivity
27 | QVQLVESGGGLVQAGGSLRLSCAASGFTFYLYAMGWYRHAPGKERELVAAISVDGGSTYYADSVKGRFTISRDNAKNTVYLQMNSLKPEDTAVYYCAARLYGRYRYDYWGQGTQVTVSS | low polyreactivity
28 | QVQLVESGGGLVQAGGSLRLSCAASGITFSSYAMGWYRQAPGKEMELVAAISYGGGNTYYADSVKGRFTISRDNAKNTVYLQMNSLKPEDTSVYYCNTLYTSYSGLDYWGQGTQVTVSS | high polyreactivity
29 | QVQLVESGGGLDQAGGSLRLSCAASGSTFLTNAMGGYRQAPGKEMELVAVISLISGPTYYADSVKVRFTISRDNAKNTVYLQMNRLKPEDTAVYYSATDPYWNSPYVKYDYWGQGTQVTVSS | high polyreactivity
30 | QVQLVESGGGLVQAGGSLRLSCAASGFIFAYYAMGWYRQAPGKERELVAAISQIGGRTYYADSVKGRFTISRDNAKNTVYLQMNSLKPEDTAVYYCAKAGAYKYGYWGQGTQVTVSS | high polyreactivity
31 | QVQLQESGGGQVQAGGSLRPSCAASGSISDRVPMGWYRQAPGEERELVATTVLGATTNYADSVKGRFTISRGNAKNTVYLQMNSLKPEETAVYYCAAPLRYDKGFSYWGEGTQVTVSS | low polyreactivity
32 | QVQLVESGGGLVQAGGSLRLSCAASGRTFYQYAMGWYRQAPGKERELVAAISRSGTSTYYADSVKGRFTISRDNAKNTVYLQMNSLKPEDTAVYYCYVLRYDYWGQGTQVTVSS | high polyreactivity
33 | QVQLVESGGGLVQAGGSLRLSCAASGSIFAYNAMGWYRQAPGKERELVASISTGDSTNYADSVKGRFTISRENAKNTDYLQMNSMKPEDTAVYYCNADSYPYYVYGSNVYWGQGSQVTVSS | low polyreactivity
34 | QVQLVESGGGLVQPGGSLRLSCAASGFIFLGYAMGWYRQAPGKERELVATITWRGGSTYYADSVKGRFTISRDNAKNTVYLQMNSLIPEDTADYYCAATRGWLHSFARDDHDYWGQGTQVTVSS | high polyreactivity
35 | QVQLVESGGGLVQAGGSLRLSCAASGFTFLGNAMGWYRQAPGKERELVATITSGGNTKYADSVKGRFTISRDNAKNTVYFQINSLKPEDTAVYYFARDRKRQADDICEFDYWGQGSQVTVSS | low polyreactivity
36 | QVQLVESGGALVQAGGSLRLSCAASGSTFLGYTMGWYRQAPGKERELVAAITSSGGRTYYADSVKGRFTISRDNAKYTVYLQMNSLIPEDTAVYYCATREYYPYSTRYSISYDYWGQGTQVTVSS | high polyreactivity
37 | QVQLVESGGGLVQAGGSLRLSCAASGFIFAWYAMGWYRQAPGKERELVADITSGGDTSYADSVKGRFTISLDNAKNTVYLQMNSLKPEDTAVYYCAAVWEPWNIRLVLTAVDYWGQGTQVTVSS | low polyreactivity
38 | QVQLVESGGGLVQAGGSLRLSCAASGFTFTENVMGWYRQAPGKEREFVAAITYIGGRTYYADSVKGRFTISRDNAKNTVYLQMNSLKPEDTAVYYCAADWAYYVASYLYYTFDYWGQGTQVTVSS | low polyreactivity
39 | QVQLVESGGGLVHAGGSLRLSCAASGRTQPYNAMGWYRQAPGKERELVAAISKRGSSTYYADSVKGRFTISRDNAKNTVYLQMNSLKPEDTAVYYCATPGPAVHGTRGEYDYWGQGTQVTVSS | high polyreactivity
40 | QVQLVESGGGLVQAGGSLRLSCAASGIIFRSYAMGWYRQAPGKERELVAAITGGGTTNYADSVKGRFTISRDNAKNTVYLQMNSLKPEDTAVYYCNAGLDWFWFNEMDYWGQGTQVTGSS | low polyreactivity
41 | QVQLLESGGGLVQAGGSLRLSCAASGYTFASYAMGWYRQAPGKERELVASISNGGGTNYADSVKGLFRISRDNAKNTVYLQMNSLKPEDTAVYYCAKRYRYYSHSYYYWGQCTQVTVSS | high polyreactivity
42 | QVQLVESVGGLVQAGGSLRLSCAASGSIFSVNAMGWYRQAPGKERELVASINFRGGRTYYADSVKGRFTISRDNAKNTVYLQMNSLKPEDTAVYYCAAVITQTDTGYGPSFRVYYWGQGTQVTVSS | high polyreactivity
43 | QVQLVESGGGLVQAGGSLRLSCAASGITFEVYAKGWYRQAPGKERELVAVITSVGSTNYADSVKGRFTISRDNAKNTVYLQMNSLKPEDTAVYYCAAEKWTVRRFNPYTYYRYDYWGQGTQVTVSS | low polyreactivity
